# Measured values as given in IntAct's records for PubMed 22405203.
# B1: Hypoxia-inducible factor prolyl hydroxylase (Caenorhabditis elegans), G5EBV0 (parent)
# chain: MSSAPNDDCEIDKGTPSTASLFTTLMLSQPSSSTAVLQCTYCGSSCTSSQLQTCLFCGTVAYCSKEHQQLDWLTHKMICKSLQTSGMVPSNLMPQAAPAVMAPIPPTVSFDDPALTTSLLLSLQNNPILNQTISNFPPTFSITSKTEPEPSIPIQIPQRISSTSTVPFSSEGSAFKPYRNTHVFNSISSESMSSMCTSHEASLEHMSSASLAMFPTSSTAQSDISRLAQVLSLAGDSPASLALVTTSVPSTASTATIPPPATTTSSATSSGKSETITVGKEKIIQTDDPDIQIIETEGGSKPTVSRTRKRPTPSNSADPKINYKDHNKNVVYSTTLQEHQKHLQNRGLALSIHQAMVLRLRYIAEHVIRSLNEFGWAVVDNFLGSDHYKFTAKEIERLYERGLFSPGQLMEAKHKDEFHIKDIRSDHIYWYDGYDGRAKDAATVRLLISMIDSVIQHFKKRIDHDIGGRSRAMLAIYPGNGTRYVKHVDNPVKDGRCITTIYYCNENWDMATDGGTLRLYPETSMTPMDIDPRADRLVFFWSDRRNPHEVMPVFRHRFAITIWYMDKSERDKALAKGKESDAACASKKENDPTSSSLNSLIGSLLRPRKNPSTHDLSKLDLRLFPSTSSDPALVSAADEDRVDISADFQSTSSLAHPESTDSGVSLSTFNVAHNHMERTTSLQSISDHFRSERSHERRSSTSSDQDLDEGLPPPPSTNPEYYI
# partner: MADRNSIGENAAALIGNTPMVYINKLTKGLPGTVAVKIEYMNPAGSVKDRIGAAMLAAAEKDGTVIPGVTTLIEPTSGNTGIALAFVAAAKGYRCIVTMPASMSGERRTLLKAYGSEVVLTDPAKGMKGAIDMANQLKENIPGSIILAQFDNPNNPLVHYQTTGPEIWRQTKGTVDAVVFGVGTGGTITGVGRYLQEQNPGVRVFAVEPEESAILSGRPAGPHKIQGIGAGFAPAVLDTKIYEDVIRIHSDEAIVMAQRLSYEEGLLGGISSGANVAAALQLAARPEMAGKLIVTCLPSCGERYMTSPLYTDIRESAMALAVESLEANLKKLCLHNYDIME
# Variants of: B1
# Settings: with cysk1_caeel cysl-1, Q93244
row,Variant,effect of a mutation on the interaction
1,E720K,disrupting interaction strength

# Variants of: B1
# Settings: with cysk1_caeel cysl-1, Q93244
# Remark: another data set of the same source
row,Variant,effect of a mutation on the interaction
1,E720K,decreasing interaction strength
2,I723A,decreasing interaction strength
